Consider two molecules from patent publication US20240226186A9, “OBLIGATE ANAEROBIC HUMAN INTESTINAL MICROBE FOR CANCER TREATMENT, AND USE THEREOF” (HEALTHBIOME, priority 2019, published 2024).

The subject of test [1] is lung cancer cells (LLC). In words: MTT assay, proliferation of lung cancer cells. The test is classed as cell-based. Conditions: LLC, 0.1, 1.0 or 10 μg/mL for 48 hours, 2-DG 20 mM (FIG. 18B). On the procedure: (§1) Then, it was investigated whether the purified HB03-01 and HB03-03 proteins affect the proliferation or apoptosis of cancer cells. Specifically, after treating colorectal cancer cells (CT26) and lung cancer cells (LLC) with the HB03-derived protein HB03-01 at concentrations of 0 (untreated), 0.1, 1.0 or 10 μg/mL or with HB03-03 at 10 μg/mL, the proliferation of the cancer cells and the activity of the apoptosis-regulating enzyme caspase-3 were investigated.
(§2) MTT assay was conducted to investigate the change in the proliferation of the cancer cells. The cancer cells were cultured using a DMEM medium (Gibco, USA) for 24 hours on a 96-well plate at 1×10^4 cells/well in a 5% CO2 incubator at 37° C. A low-glucose condition was maintained by treating with 2-deoxyglucose (2-DG) to a final concentration of 20 mM. After culturing for 6 hours, HB03-01 was treated at a concentration of 0, 0.1, 1.0 or 10 μg/mL for 48 hours. After adding 10 μL of an MTT solution, the cells were cultured further for 2 hours. After removing the medium from the 96-well plate and dissolving a formazan formed on the plate with 100 μL of DMSO, absorbance was measured at 540 nm using an ELISA reader (Model 680, BioRad). A control group was treated with 0 μg/mL HB03-01 (untreated), and the measurement values were represented as relative cell survivability (%) with respect to the number of cells in the control group as 100%.
(Tetrazolium assays rely on reduction of a dye to a coloured formazan, in cell work by metabolically active cells.)

Test [2] has as its system colorectal cancer cells (CT26). In words: MTT assay, proliferation of colorectal cancer cells. The test is classed as cell-based. The settings on record: CT26, 0.1, 1.0 or 10 μg/mL for 48 hours, 2-DG 20 mM (FIG. 18A). As for the experimental part: as §1, §2
The test system of test [3] is caspase-3. In words: Western blot of caspase-3 activity level in lung cancer cells. The test is classed as cell-based. Conditions: LLC lung cancer cells, 10 μg/mL for 24 hours (FIG. 18C). On the procedure: as §1
Western blot was conducted to investigate the activity level of caspase-3. Lung cancer cells treated with 10 μg/mL of HB03-01 or HB03-03 for 24 hours were homogenized in an ice-cold 20 mM Tris-HCl buffer (pH 7.5) containing 2 mM EDTA (ethylenediaminetetraacetic acid), 0.5 mM EGTA (ethylene glycol tetraacetic acid), 300 mM sucrose and 2 mM PMSF (phenylmethylsulfonyl fluoride). After electrophoresing 50 μg of proteins on 15% SDS-PAGE (sodium dodecyl sulfate-polyacrylamide gel electrophoresis) gel, they were transferred onto a PVDF (polyvinylidene fluoride) membrane using a semidry transfer system (Hoefer, Holliston, MA, USA). Non-specific binding was blocked by incubating with 5% non-fat dry milk. […] The immune complexes were detected using an ECL detection kit (Amersham Biosciences Korea, Seoul, Korea) and auto-radiographed onto an X-ray film. […]
For orientation: A western blot detects proteins with antibodies after separation by electrophoresis.

Test [4] relates to MC38 colorectal cancer cells. In words: Tumor growth in mice inoculated with MC38 colorectal cancer cells. The test is classed as in vivo, C57BL/6 JAX mice. Conditions: administered 5 times until day 16 with 2-day intervals from day 5 (FIG. 19). The source says:
6- to 8-week old male C57BL/6J JAX and BALB/c mice purchased from Daehan Biolink were used. Each of the mice was housed in a cage and was maintained under a controlled environment (12-hour light/dark cycle, light-off at 7 pm) with free access to feed and water ad libitum. Tumorigenesis was induced by injecting pancreatic cancer cells (Panc02), melanoma cells (B16F10), glioma cells (GL261), sarcoma cells (MCA205) colorectal cancer cells (MC38) and lung cancer cells (LLC) to the C57BL/6 JAX mice and injecting colorectal cancer cells (CT26) to the BALB/c mice. Specifically, 1×10^7 cells/100 μL of Panc02, 2×10^5 cells/100 μL of B16F10, 5×10^5 cells/100 μL of GL261, 5×10^5 cells/100 μL of MCA205, 5×10^5 cells/100 μL of MC38, 5×10^5 cells/100 μL of LLC or 5×10^5 cells/100 μL of CT26 tumor cells were subcutaneously injected to the mice. Tumor size was measured with 2- or 3-day intervals until the end of the experiment, and tumor volume was calculated as length×width^2×0.5. In order to investigate the change in tumor size and immune environment owing to HB03 and its fragment, intestinal contents were recovered, immersed in liquid nitrogen and then kept at −80° C. All animal experimental procedures were approved by the Animal Care and Use Committee of Korea Research Institute of Bioscience and Biotechnology. […]

B1: HB03-01: protein produced by the HB03 strain, SEQ ID NO 1, overexpressed in E. coli and purified (protein)
chain: IVNSKRSELDKKISIAAKEIKSANAAEITPSRSSNEELEKELNRYAKAVGSLETAYKPFLASSALVPTTPTAFQNELKTFRDSLISSCKKKNILITDTSSWLGFQVYSTQAPSVQAASTLGFELKAINSLVNKLAECGLSKFIKVYRPQLPIETPANNPEESDEADQAPWTPMPLEIAFQGDRESVLKAMNAITGMQDYLFTVNSIRIRNERMMPPPIANPAAAKPAAAQPATGAASLTPADEATAPAAPAIQQVIKPYMGKEQVFVQVSLNLVHFNQPKAQEPSED
modifications: HB03-01
As to B1, the “Proliferation of lung cancer cells (relative cell survivability)” value in test [1] is listed as “significantly decreased”. Besides, in test [2], the “Proliferation of colorectal cancer cells (relative cell survivability)” value is “significantly decreased”. Besides, the “Activation of apoptosis-regulating enzyme (caspase-3)” value in test [3] was “activated”. Moreover, the “Tumor growth vs control group, post-treatment with HB03-derived protein” value in test [4] is listed as “significantly inhibit tumor growth”.

B2: HB03-03: protein produced by the HB03 strain, SEQ ID NO 2, overexpressed in E. coli and purified (protein)
chain: IPESSVPAAAVSSVKGAYPNAGPIEWDSEMHGMERIYEAEFRINGFQFDVKIAPDGKIVRIKEEIAASSLPEAVRASVLKRYPGCRIKEAEKITEGELVRYKVEVADSRDDYDVLIAPDGNILHVDR
modifications: HB03-03
As to B2, the “Activation of apoptosis-regulating enzyme (caspase-3)” value in test [3] is recorded as “activated”. In addition, in test [4], the “Tumor growth vs control group, post-treatment with HB03-derived protein” value was “significantly inhibit tumor growth”.
